Values quoted from earlier work, collected in publication PMC5578180.

Test system: His193
Assay: kinetics
Settings: folded, green (pre-photoconversion) state of LEA under illumination

Least Evolved Ancestor (LEA), ancestral reconstructed green-to-red photoconvertible GFP-like fluorescent protein (synthetic construct (ancestral gene reconstruction of Faviina coral GFP-like proteins; lineage of the great star coral, printed as Monastrea cavernosa); A60V;Q62H;T69A;D74H;T104R;S105N;Y116N;M154T;V157I;R194C;R216H;del217;L219G)
pKa: 7.5
